Key:
[1] = target: T1, N protein (unphosphorylated, lambda-phosphatase treated) (SARS-CoV-2 (isolate Wuhan-Hu-1), UniProt P0DTC9 1-419); assay: MST; apparent; Hill nH = 1.6 +/- 0.1; details: protein: recombinant; tags: His6-MBP tag cleaved (3C); linker remnant possible; chain copies: 2; label: Cy5 at 5' end of forward strand; blunt
cGAS = cGAS (human, UniProt Q8N884 1-522)
biotin-AviTag-cGASCD = biotin-AviTag-cGASCD (human, UniProt Q8N884 158-522); assay: BLI; N protein first adds signal, then accelerates dissociation; details: protein: recombinant; tags: AviTag, biotinylated; blunt
[2] = target: T1, N protein (unphosphorylated, …); assay: MST; apparent; Hill nH = 1.7 +/- 0.4; details: protein: recombinant; tags: His6-MBP tag cleaved (3C); linker remnant possible; chain copies: 2; stem loop

B1: 50-bp DNA-Cy5 (dsDNA)
DNA 1: GATCTCTTGTAGATCTGTTCTCTAAACGAACTTTAAAATCTGTGTGGCTG
DNA 2: CAGCCACACAGATTTTAAAGTTCGTTTAGAGAACAGATCTACAAGAGATC
B1 was tested, and the Kd [1] was 6.3 ± 0.3 nM and the binding result (cGAS) was “binds”.

B2: 50-bp DNA (label-free) (dsDNA)
DNA 1: B1 DNA 1
DNA 2: B1 DNA 2
B2: binds (cGAS).

B3: 45-bp DNA (ISD) (dsDNA)
DNA 1: TACAGATCTACTAGTGATCTATGACTGATCTGTACATGATCTACA
DNA 2: TGTAGATCATGTACAGATCAGTCATAGATCACTAGTAGATCTGTA
B3: binds (biotin-AviTag-cGASCD).

B4: 50-nt RNA-Cy5 (ssRNA)
RNA: GAUCUCUUGUAGAUCUGUUCUCUAAACGAACUUUAAAAUCUGUGUGGCUG
In the case of B4, the Kd [2] is reported as 3 ± 0.4 nM.

— PMC12232725
